{
  "source": "patent US20080219983A1",
  "about": "(TRIMESTER CUSHION, published 2008)",
  "molecules": {"B1": {"name": "Plasma-derived FVIII light chain (other, UniProt P00451 1668-2351, looked up)", "chain": "EITRTTLQSDQEEIDYDDTISVEMKKEDFDIYDEDENQSPRSFQKKTRHYFIAAVERLWDYGMSSSPHVLRNRAQSGSVPQFKKVVFQEFTDGSFTQPLYRGELNEHLGLLGPYIRAEVEDNIMVTFRNQASRPYSFYSSLISYEEDQRQGAEPRKNFVKPNETKTYFWKVQHHMAPTKDEFDCKAWAYFSDVDLEKDVHSGLIGPLLVCHTNTLNPAHGRQVTVQEFALFFTIFDETKSWYFTENMERNCRAPCNIQMEDPTFKENYRFHAINGYIMDTLPGLVMAQDQRIRWYLLSMGSNENIHSIHFSGHVFTVRKKEEYKMALYNLYPGVFETVEMLPSKAGIWRVECLIGEHLHAGMSTLFLVYSNKCQTPLGMASGHIRDFQITASGQYGQWAPKLARLHYSGSINAWSTKEPFSWIKVDLLAPMIIHGIKTQGARQKFSSLYISQFIIMYSLDGKKWQTYRGNSTGTLMVFFGNVDSSGIKHNIFNPPIIARYIRLHPTHYSIRSTLRMELMGCDLNSCSMPLGMESKAISDAQITASSYFTNMFATWSPSKARLHLQGRSNAWRPQVNNPKEWLQVDFQKTMKVTGVTTQGVKSLLTSMYVKEFLISSSQDGHQWTLFFQNGKVKVFQGNQDSFTPVVNSLDPPLLTRYLRIHPQSWVHQIALRMEVLGCEAQDLY", "notes": "domain: light chain (a3-A3-C1-C2); Prepared from plasma as in the cited literature; Human by context (the peptides are said to cover human FVIII regions); Residue numbers count on mature FVIII, without the signal peptide; also called LCh; 80-kDa light chain (a3-A3-C1-C2)"}, "B2": {"name": "scFv KM41 (scFv)", "scFv": "QVQLLQSAADVKKPGASVKVSCTASGYIFTSYDIDWVRQATGQGLEWMGWMNPNSGNAGFAQKFKGRLTLTRDTSTSTAYMELRRLESEDTAVYYCARSTPHSYSGSGLPPTSDSWGQGTLVTVSSGGGGSGGGGSGGGGSEIVLTQSPGTLSLSPGERATLSCRASQSVSSSFLGWYQQKPGQAPRLLIYGASSRATGIPDRFSGSGSGTDFTLTISRLEPEDFAVYYCQQYGISPLTFGGGTKLEIKRAAAEQKLISEEDLNGAAHHHHHH", "notes": "Expressed in E. coli TG1"}, "B3": {"name": "Recombinant LRP cluster II (receptor, UniProt Q07954 805-1184, looked up)", "chain": "NKCRVNNGGCSSLCLATPGSRQCACAEDQVLDADGVTCLANPSYVPPPQCQPGEFACANSRCIQERWKCDGDNDCLDNSDEAPALCHQHTCPSDRFKCENNRCIPNRWLCDGDNDCGNSEDESNATCSARTCPPNQFSCASGRCIPISWTCDLDDDCGDRSDESASCAYPTCFPLTQFTCNNGRCININWRCDNDNDCGDNSDEAGCSHSCSSTQFKCNSGRCIPEHWTCDGDNDCGDYSDETHANCTNQATRPPGGCHTDEFQCRLDGLCIPLRWRCDGDTDCMDSSDEKSCEGVTHVCDPSVKFGCKDSARCISKAWVCDGDNDCEDNSDEENCESLACRPPSHPCANNTSVCLPPDKLCDGNDDCGDGSDEGELCDQ", "notes": "domain: cluster II"}},
  "key": {"[1]": {"biological_target": "Purified placenta-derived low-density lipoprotein receptor-related protein (LRP) (UniProt Q07954)", "sequence (Q07954 20-4544, form in doubt)": "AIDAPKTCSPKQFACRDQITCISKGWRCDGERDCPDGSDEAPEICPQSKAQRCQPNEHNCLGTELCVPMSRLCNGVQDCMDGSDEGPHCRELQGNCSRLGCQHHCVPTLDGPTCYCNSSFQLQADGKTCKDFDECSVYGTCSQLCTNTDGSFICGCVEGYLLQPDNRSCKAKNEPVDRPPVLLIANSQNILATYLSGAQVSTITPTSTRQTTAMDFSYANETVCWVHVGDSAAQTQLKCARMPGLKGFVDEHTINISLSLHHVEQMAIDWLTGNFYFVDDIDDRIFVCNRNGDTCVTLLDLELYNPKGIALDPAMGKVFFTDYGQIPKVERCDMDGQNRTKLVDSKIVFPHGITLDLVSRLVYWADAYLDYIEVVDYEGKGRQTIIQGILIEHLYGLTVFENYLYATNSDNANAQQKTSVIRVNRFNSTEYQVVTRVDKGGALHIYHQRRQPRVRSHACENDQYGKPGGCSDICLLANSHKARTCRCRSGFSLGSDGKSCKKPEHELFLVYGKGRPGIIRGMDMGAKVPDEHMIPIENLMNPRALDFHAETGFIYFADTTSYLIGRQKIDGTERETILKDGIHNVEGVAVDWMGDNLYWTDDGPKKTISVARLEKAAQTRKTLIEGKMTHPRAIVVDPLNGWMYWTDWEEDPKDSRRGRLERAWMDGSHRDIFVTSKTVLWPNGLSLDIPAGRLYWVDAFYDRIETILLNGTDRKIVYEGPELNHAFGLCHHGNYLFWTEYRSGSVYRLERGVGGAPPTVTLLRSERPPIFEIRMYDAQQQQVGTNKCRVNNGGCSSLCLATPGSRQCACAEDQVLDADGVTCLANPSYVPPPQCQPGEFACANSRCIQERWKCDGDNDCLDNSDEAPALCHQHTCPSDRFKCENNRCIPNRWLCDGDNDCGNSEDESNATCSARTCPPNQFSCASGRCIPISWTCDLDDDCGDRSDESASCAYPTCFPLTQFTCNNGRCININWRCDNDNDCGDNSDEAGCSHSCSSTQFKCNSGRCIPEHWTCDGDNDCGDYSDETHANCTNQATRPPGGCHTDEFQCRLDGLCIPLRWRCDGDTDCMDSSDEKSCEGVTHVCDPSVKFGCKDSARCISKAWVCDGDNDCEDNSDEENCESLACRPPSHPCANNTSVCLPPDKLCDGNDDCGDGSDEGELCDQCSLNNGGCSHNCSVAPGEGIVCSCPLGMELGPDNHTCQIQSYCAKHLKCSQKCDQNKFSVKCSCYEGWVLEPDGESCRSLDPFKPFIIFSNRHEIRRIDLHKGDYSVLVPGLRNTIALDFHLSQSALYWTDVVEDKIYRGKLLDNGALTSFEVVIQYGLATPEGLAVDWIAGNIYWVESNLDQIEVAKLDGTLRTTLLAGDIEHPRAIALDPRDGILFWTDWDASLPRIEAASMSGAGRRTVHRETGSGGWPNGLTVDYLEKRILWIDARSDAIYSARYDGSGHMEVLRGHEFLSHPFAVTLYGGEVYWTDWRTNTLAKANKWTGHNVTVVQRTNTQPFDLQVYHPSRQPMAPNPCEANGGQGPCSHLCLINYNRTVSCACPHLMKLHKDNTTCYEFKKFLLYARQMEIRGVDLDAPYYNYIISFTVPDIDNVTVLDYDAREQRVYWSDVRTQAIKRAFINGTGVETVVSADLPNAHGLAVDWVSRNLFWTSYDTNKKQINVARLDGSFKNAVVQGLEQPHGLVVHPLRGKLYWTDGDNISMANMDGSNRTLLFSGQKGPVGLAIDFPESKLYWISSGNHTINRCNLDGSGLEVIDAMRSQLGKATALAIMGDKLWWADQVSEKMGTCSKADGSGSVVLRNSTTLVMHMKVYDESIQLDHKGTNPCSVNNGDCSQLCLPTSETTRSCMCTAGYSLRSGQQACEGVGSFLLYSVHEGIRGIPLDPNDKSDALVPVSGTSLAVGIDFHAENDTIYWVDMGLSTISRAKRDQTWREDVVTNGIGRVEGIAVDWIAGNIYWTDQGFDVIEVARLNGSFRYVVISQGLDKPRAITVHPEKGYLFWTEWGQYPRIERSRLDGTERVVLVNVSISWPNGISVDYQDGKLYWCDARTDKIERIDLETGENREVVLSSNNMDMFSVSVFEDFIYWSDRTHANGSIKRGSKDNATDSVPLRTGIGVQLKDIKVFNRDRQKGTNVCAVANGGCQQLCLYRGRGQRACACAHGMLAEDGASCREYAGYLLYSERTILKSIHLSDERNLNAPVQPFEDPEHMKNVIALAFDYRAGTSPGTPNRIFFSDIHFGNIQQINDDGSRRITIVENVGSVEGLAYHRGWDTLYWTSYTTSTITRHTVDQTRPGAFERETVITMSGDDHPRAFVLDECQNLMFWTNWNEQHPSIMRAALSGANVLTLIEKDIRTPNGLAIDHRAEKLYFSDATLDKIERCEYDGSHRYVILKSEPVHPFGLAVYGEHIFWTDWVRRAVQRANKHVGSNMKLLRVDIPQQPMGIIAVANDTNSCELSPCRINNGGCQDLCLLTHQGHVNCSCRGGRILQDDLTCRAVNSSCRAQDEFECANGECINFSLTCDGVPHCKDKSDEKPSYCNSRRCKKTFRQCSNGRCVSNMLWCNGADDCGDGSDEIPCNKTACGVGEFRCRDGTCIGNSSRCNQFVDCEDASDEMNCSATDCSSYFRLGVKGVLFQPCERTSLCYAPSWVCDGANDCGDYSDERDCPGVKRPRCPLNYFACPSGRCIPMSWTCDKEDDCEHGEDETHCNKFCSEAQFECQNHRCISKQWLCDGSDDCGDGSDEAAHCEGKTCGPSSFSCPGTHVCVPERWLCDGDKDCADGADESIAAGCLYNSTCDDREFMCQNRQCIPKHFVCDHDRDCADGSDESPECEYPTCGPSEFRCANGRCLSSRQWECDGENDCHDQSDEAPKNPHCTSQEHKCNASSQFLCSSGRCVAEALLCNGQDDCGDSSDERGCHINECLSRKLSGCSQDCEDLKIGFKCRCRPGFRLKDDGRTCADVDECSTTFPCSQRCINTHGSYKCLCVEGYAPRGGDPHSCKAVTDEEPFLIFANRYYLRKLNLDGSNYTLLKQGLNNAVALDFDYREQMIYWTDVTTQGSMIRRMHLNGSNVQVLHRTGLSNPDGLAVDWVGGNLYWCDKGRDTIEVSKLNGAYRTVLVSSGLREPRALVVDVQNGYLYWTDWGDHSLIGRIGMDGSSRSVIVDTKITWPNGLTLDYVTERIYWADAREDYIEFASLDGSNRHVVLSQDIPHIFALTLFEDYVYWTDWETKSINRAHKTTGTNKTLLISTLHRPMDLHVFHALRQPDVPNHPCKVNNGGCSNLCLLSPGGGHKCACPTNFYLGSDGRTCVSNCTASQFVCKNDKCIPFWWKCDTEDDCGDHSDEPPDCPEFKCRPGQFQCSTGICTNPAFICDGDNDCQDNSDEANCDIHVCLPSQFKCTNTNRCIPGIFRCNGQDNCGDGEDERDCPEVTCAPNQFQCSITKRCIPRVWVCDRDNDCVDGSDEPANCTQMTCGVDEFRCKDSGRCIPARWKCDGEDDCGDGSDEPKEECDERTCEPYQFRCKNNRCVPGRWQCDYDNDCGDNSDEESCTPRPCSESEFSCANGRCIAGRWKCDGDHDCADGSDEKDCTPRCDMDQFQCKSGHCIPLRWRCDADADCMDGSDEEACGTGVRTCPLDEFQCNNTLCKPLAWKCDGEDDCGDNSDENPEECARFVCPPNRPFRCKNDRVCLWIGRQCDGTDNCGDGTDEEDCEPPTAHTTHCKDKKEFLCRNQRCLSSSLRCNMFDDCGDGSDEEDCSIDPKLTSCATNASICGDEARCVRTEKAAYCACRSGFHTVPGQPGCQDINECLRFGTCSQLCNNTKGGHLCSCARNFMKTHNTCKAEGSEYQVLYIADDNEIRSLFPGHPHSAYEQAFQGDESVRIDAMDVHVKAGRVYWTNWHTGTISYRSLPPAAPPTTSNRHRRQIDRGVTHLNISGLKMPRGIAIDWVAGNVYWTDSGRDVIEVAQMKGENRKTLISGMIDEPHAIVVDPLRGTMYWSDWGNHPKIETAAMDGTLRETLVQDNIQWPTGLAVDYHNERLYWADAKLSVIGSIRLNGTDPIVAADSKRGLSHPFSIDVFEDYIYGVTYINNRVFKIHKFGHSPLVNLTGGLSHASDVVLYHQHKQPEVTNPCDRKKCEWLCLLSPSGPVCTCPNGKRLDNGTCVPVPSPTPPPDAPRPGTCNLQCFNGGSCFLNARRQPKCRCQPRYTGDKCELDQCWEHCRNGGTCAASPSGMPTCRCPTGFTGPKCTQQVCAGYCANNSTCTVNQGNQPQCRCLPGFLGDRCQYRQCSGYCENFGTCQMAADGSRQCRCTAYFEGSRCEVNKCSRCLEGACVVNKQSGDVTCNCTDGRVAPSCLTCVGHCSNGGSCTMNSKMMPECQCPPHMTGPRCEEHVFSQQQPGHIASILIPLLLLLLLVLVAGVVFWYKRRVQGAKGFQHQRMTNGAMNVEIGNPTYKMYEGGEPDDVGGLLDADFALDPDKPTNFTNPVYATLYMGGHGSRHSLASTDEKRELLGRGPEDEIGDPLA", "assay": "SPR, immobilised LRP, two-site model, site class 2"}, "[2]": {"biological_target": "Purified placenta-derived low-density lipoprotein receptor-related protein (LRP) (UniProt Q07954)", "assay": "SPR, immobilised LRP, two-site model, site class 1"}, "[3]": {"biological_target": "Purified placenta-derived low-density lipoprotein receptor-related protein (LRP) (UniProt Q07954)", "assay": "SPR, immobilised LRP, steady-state affinity analysis"}, "[4]": {"biological_target": "B3", "assay": "solid-phase binding assay: serial dilutions of FVIII light chain on immobilised LRP cluster II (1 pmol/well); detection with peroxidase-conjugated CLB-CAg 12", "description": "FIG. 2. […] Data represent the mean ±S.D. of three experiments\n(§1) Solid-phase Binding Assays—Recombinant LRP clusters II or IV (1 pmol/well) were adsorbed onto microtiter wells in 50 mM NaHCO₃ (pH 9.8) in a volume of 50 μl for 16 h at 4° C. Wells were blocked with 2% (w/v) HSA, 150 mM NaCl, 5 mM CaCl₂, and 50 mM Tris (pH 7.4) in a volume of 200 μl for 1 h at 37° C. […] Bound ligand was detected by incubating with peroxidase-conjugated monoclonal antibody CLB-CAg 12 in the same buffer for 15 min at 37° C. […] Residual FVIII binding was detected as described above."}, "[5]": {"biological_target": "B1", "assay": "solid-phase competition assay: FVIII light chain (25 nM) on immobilised LRP cluster II (1 pmol/well) in the presence of scFv KM41 (0-100 nM); detection with peroxidase-conjugated CLB-CAg 12", "description": "FIG. 4. […] Data represent the mean ±S.D. of three experiments. […] Complexes were allowed to form for 30 min before SPR analysis.\nas §1"}, "[6]": {"biological_target": "T1, Recombinant FVIII/FV^1811-1818 light chain chimera (UniProt P00451 1668-2351)", "T1 construct": "domain: light chain (a3-A3-C1-C2); The single substitutions were worked out from the two printed octapeptides; In the assays it was captured on immobilised scFv EL14", "T1 sequence": "B1 chain with E163S, T164S, K165Y, F168V, K170H", "assay": "SPR (BIAcore), FVIII/FV1811-1818 light chain chimera captured at 20 fmol/mm2 on immobilised scFv EL14, scFv KM41 40 nM as analyte", "procedure": "Response is indicated as Resonance Units (RU) and is corrected for nonspecific binding.\n(§2) Surface Plasmon Resonance—The kinetics of protein interactions was determined by surface plasmon resonance (SPR) analysis, employing a BIAcore™2000 biosensor system (Biacore AS, Uppsala, Sweden). […] One control flow-channel was routinely activated and blocked in the absence of protein. […] Dissociation was allowed for 2 min in the same buffer flow. Sensor-chips were regenerated using several pulses of either 100 mM H₃PO₄ or 20 mM EDTA, 1 M NaCl, and 50 mM Hepes (pH 7.4) at a flow rate of 20 μl/min. The association (kₒₙ) and dissociation (koff) rate constants were determined by using the BIAevaluation software 3.1 (Biacore AB, Uppsala, Sweden). Data were corrected for bulk refractive index changes and fitted by nonlinear regression analysis according to a two-site binding model. Equilibrium dissociation constants (kd) were calculated from the ratio koff/kₒₙ. The kd value for low-affinity interactions was estimated using steady-state affinity analysis by using BIAevaluation software."}, "[7]": {"biological_target": "T2, Factor Va light chain (human, UniProt P12259 1574-2224)", "T2 construct": "domain: FVa light chain; also called FVa light chain", "T2 sequence (looked up)": "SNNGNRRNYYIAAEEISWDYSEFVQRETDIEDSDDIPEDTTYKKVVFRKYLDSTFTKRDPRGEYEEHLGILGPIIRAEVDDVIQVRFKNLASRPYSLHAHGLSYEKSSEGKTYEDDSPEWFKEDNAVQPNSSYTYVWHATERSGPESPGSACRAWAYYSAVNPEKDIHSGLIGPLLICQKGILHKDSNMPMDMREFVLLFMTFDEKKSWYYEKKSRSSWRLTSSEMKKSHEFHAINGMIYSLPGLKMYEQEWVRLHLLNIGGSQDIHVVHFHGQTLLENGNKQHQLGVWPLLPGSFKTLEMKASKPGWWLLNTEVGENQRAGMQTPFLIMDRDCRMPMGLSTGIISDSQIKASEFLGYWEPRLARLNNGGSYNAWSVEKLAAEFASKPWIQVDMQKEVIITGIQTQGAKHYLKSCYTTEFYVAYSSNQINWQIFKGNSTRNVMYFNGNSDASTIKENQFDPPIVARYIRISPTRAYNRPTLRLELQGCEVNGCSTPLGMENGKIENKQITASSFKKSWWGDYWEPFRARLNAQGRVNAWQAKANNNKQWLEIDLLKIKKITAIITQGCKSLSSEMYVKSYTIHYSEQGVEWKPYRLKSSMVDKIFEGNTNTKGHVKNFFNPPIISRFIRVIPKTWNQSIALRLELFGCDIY", "assay": "SPR (BIAcore), FVa light chain immobilised at 76 fmol/mm2, LRP cluster II 100 nM as analyte", "procedure": "Response is indicated as Resonance Units (RU) and is corrected for nonspecific binding, which was less than 5% relative to coated channels.\nas §2"}, "[8]": {"biological_target": "B3", "assay": "solid-phase competition: peptide against FVIII light chain (25 nM) binding to immobilised LRP cluster II", "description": "as §1\nHalf-maximum inhibition constants (IC₅₀) represent the mean values ±S.D. of three experiments.)"}},
  "note": "Positions count from the first letter of the chain named.",
  "data": [
    {"molecule": "Factor Xa-cleaved FVIII light chain (from UniProt P00451 1741-2351)", "values": [
      {"measurement": "Kd", "setting": "[1]", "value": 60, "unit": "nM"},
      {"measurement": "koff", "setting": "[1]", "value": 0.056, "unit": "s⁻¹"},
      {"measurement": "kon", "setting": "[1]", "value": 900000, "unit": "M⁻¹ s⁻¹"},
      {"measurement": "Kd", "setting": "[2]", "value": 22, "unit": "nM"},
      {"measurement": "koff", "setting": "[2]", "value": 0.003, "unit": "s⁻¹"},
      {"measurement": "kon", "setting": "[2]", "value": 130000, "unit": "M⁻¹ s⁻¹"}
    ]},
    {"molecule": "Recombinant FVIII a3-A3-C1 fragment (from UniProt P00451 1668-2191)", "values": [
      {"measurement": "Kd", "setting": "[1]", "value": 74, "unit": "nM"},
      {"measurement": "koff", "setting": "[1]", "value": 0.08, "unit": "s⁻¹"},
      {"measurement": "kon", "setting": "[1]", "value": "1.1e+06", "unit": "M⁻¹ s⁻¹"},
      {"measurement": "Kd", "setting": "[2]", "value": 26, "unit": "nM"},
      {"measurement": "koff", "setting": "[2]", "value": 0.0041, "unit": "s⁻¹"},
      {"measurement": "kon", "setting": "[2]", "value": 160000, "unit": "M⁻¹ s⁻¹"}
    ]},
    {"molecule": "Recombinant FVIII C2 domain (from UniProt P00451 2192-2351)", "values": [
      {"measurement": "Kd", "setting": "[3]", "value": 3400, "unit": "nM"}
    ]},
    {"molecule": "B1", "values": [
      {"measurement": "Kd", "setting": "[1]", "value": 59, "unit": "nM"},
      {"measurement": "Kd", "setting": "[2]", "value": 18, "unit": "nM"},
      {"measurement": "EC50 (read off the curve)", "setting": "[4]", "value": "~20", "unit": "nM"}
    ]},
    {"molecule": "B2", "values": [
      {"measurement": "IC50 (read off the curve)", "setting": "[5]", "value": "~7", "unit": "nM"},
      {"measurement": "binding result", "setting": "[6]", "value": "no binding (tested: 40 nM)"}
    ]},
    {"molecule": "B3", "values": [
      {"measurement": "binding result", "setting": "[7]", "value": "no binding (tested: 100 nM)"}
    ]},
    {"molecule": "KNFVKPNETKTYFWK", "note": "[Synthetic peptide FVIII Lys^1804-Lys^1818]", "values": [
      {"measurement": "IC50", "setting": "[8]", "value": 1900, "unit": "nM"}
    ]},
    {"molecule": "YFWKVQHHMAPTKDEFDCKA", "note": "[Synthetic peptide FVIII Tyr^1815-Ala^1834]", "values": [
      {"measurement": "IC50", "setting": "[8]", "value": 16800, "unit": "nM"}
    ]},
    {"molecule": "DGKKWQTYRG (also called 2108-2117)", "note": "[Synthetic peptide FVIII Asp^2108-Gly^2117]", "values": [
      {"measurement": "IC50", "setting": "[8]", "value": 900000, "unit": "nM"}
    ]}
  ]
}
